US20220372114A1 (CURIA IP, published 2022)
Where “and” joins values, the source holds several entries; their conditions need not be identical. Equal values may be shown once.

B1: 7-B10-A (antibody, V domains shown)
VH: EVQLVESGGGLVQPKGSLKLSCAASGFTFNTYAMHWVRQAPGKGLEWVARIRSKSSNYARYYADSVKDRFTISRDESQSMLYLQMNNLKTEDTAMYYCVRDHDYYGSSYWFAYWGQGTLVTVSA
VL: DVVMTQTPLSLPVSLGDQASISCSSSQSLVHNNGNTYLHWYLQKPGQSPKLLIYKVSNRFSGVPDRFSGSGSGTDFTLKISRVEAEDLGVYFCSQSTHVPWTFGGGTKLEIK
B2: 4-K13-A (antibody, V domains shown)
VH: QAYLQQSGAELVRPGASVKMSCKASGYTFTSYTVHWVKQTPRQGLEWIGAIYPGNVDTSYNQNFKGKATLTVDKSSSTAYMQLSSLTSEDSAVYFCARDGYYAMDYWGQGTSVTVSS
VL: not shown
B3: 5-P24-A (antibody, V domains shown)
VH: QAYLQQSGAELVRPGASVKMSCKASGYTFTSYSMHWVKQTPRQGLEWIGAIYPGNGDTSYTQKFKGKATLTVDKSSSTAYMQLSSLTSEDSAVYFCARDYSNYPFDYWGQGTTLTVSS
VL: not shown
B4: 10-L12-A (antibody, V domains shown)
VH: QAYLQQSGAELVRPGASVKMSCKASGYTFTSYSMHWVKQTPRQGLEWIGAIYPGNGDTSYNQKFKGKATLTVDKSSSTAYMQLSSLTSEDSAVYFCTRDYSNYPFDYWGQGTTLTVSS
VL: DIVLTQSPASLAVSLGQRATISCRASKSVSTSGYSYLHWYQQKPGQPPKLLIYLASNLESGVPARFSGSGSGTDFTLNIHPVEEEDAATYYCQHSRELPPTFGGGTKLEIK
B5: 10-B13-A (human Fc IgG2 chimera) (antibody, V domains shown)
VH: QVQLQQSGAELVKPGASVKISCKASGYAFSNYWMNWVKQRPGKGLEWIGQIYPGDGDTNYNGNFKGKATLTADKSSSTAYIQLSSLTSEDSAVYFCGRGFIATVVEVFDHWGLGTTLTVSS
VL: DIQMTQTTSSLSASLGDRVTISCRASQDISNYLNWYQQKPDGTVKLLIYYTSRLQSGVPSRFSGSGTGTDYSLTISNLEQEDIATYFCQQGNTLPWTFGGGTKLEIK

Assays:
[1] = target: SARS-CoV-2 (WIV02 isolate) prefusion stabilized spike trimer protein (SARS-CoV-2 (WIV02 isolate), UniProt P0DTC2 14-1213); assay: ELISA
[2] = target: SARS-CoV-2 spike protein on live wild-type virus (SARS-CoV-2, UniProt P0DTC2 14-1273); assay: cell-based or functional assay

Row | Binder | binding result [1] | IC50, BSL3 Vero E6 infection plaque assay [2]
1 | B1 | binds | –
2 | B2 | binds | –
3 | B3 | binds | –
4 | B4 | binds | –
5 | B5 | – | 0.21 µg/mL and 1.4 nM
